T1: recombinant human LAG-3 fusion protein (human, UniProt P18627 23-450)
T1 construct: also called recombinant LAG-3 protein
T1 sequence (looked up): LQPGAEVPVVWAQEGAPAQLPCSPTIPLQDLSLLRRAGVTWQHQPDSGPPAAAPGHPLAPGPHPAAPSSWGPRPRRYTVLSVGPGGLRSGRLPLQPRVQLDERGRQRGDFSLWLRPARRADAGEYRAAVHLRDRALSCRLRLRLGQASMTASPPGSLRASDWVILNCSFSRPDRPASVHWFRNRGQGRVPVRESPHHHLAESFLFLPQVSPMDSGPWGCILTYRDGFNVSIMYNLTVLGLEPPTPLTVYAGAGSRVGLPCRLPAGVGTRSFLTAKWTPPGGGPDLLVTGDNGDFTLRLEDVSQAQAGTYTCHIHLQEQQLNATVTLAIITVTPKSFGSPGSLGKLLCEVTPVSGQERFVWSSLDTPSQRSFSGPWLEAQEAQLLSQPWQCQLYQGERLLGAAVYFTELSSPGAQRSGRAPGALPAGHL

T2: human LAG-3 (cell surface) (human, UniProt P18627 23-525)
T2 construct: whole, on cells; also called CHO-human LAG-3
T2 sequence (looked up): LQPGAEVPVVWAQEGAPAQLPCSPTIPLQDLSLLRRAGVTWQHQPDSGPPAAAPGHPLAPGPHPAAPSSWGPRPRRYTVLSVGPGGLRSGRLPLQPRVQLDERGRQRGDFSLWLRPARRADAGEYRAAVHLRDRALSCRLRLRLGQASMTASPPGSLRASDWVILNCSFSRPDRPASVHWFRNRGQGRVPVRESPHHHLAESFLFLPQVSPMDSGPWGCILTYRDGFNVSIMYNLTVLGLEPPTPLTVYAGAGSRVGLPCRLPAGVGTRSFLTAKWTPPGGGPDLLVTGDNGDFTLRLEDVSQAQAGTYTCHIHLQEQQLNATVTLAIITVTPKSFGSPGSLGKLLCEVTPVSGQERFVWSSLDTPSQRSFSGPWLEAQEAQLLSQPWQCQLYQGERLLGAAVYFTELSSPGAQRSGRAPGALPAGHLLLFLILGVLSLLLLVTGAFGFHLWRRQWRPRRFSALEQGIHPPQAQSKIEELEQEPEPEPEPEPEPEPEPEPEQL

T3: LAG-3 fusion protein comprising human LAG-3 extracellular domain fused to mouse Fc (human, UniProt P18627 23-450)
T3 construct: extracellular domain; also called hLAG-3-mIg; LAG-3-mIg; not shown: mouse Fc
T3 sequence (looked up): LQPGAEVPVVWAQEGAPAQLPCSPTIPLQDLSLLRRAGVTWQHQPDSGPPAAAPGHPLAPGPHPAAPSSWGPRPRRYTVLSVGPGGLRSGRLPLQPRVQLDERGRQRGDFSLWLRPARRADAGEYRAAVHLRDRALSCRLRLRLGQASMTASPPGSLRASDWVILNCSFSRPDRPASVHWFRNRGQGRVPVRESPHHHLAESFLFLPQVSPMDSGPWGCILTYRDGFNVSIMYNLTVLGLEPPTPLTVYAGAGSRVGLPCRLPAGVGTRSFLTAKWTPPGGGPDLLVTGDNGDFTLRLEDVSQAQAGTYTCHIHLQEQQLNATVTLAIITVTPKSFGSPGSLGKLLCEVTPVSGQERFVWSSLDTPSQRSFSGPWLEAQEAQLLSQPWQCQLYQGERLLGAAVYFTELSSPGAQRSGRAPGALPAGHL


Experiments:
[1] = biological target: T1, recombinant human LAG-3 fusion protein; assay: BIAcore, antibody captured on anti-CH1, 20 nM LAG-3 fusion protein injected
Description: The binding of the 25E3, 25F7, 8B7, 26H10 and 17E5 antibodies to recombinant LAG-3 protein was examined by BIAcore™ using a capture method. The 25E3, 25F7, 8B7, 26H10 and 17E5 antibodies each were captured using anti-CH1, a reagent antibody that is specific towards the heavy chain constant region 1 of human antibody (Zymed, Clone HP6045, Stock conc. 1.0 mg/mL). Anti-CH1 was coated on a CMS chip (BR-1000-14, Research Grade) at high density (9700-11500RUs). The coating was carried out based on the standard immobilization procedure recommended by the manufacturer. The 25E3, 25F7, 8B7, 26H10 or 17E5 purified antibody, with concentrations ranging from 0.5-3 μg/mL, was then captured on the anti-CH1 coated surface at the flow-rate of 10 uL/min for 1 minute. A single concentration of recombinant human LAG-3 fusion protein (20 nM) was injected over captured antibody for 3 minutes at a flow rate of […]. The antigen was allowed to dissociate for 7.5 minutes. The chip surface was regenerated after each cycle with 25 μL, of 25 mM NaOH followed by 30 μL of HBS-EP wash. Isotype controls were run on the chip, and the data used to subtract non-specific binding. All the experiments were carried out on a Biacore 3000 surface plasmon resonance instrument, using BIAcore Control software v 3.2. Data analysis was carried out using BiaEvaluation v3.2 software. The BIAcore results for 25E3, 25F7, 8B7, 26H10 and 17E5 confirm the flow cytometry results that all five antibodies are capable of binding with high affinity to human LAG-3.

[2] = biological target: T2, human LAG-3 (cell surface); assay: flow cytometry, CHO cells expressing human LAG-3
Description: To test the ability of the antibodies to bind to cell surface LAG-3 protein, the antibodies were incubated with a CHO cell line that had been transfected to express human LAG-3 on the cell surface. The 25F7, 26H10, 25E3, 8B7, 11F2 and 17E5 monoclonal antibodies were serially diluted with cold lx PFAE buffer (1×PBS+2% FBS, 0.02% sodium azide, 2 mM Na EDTA). For the binding reaction, 50 μl of diluted antibody solution was added to a 50 μl cell suspension containing 2×10⁵ cells and the mixture was incubated on ice for 30 minutes. The cells were then washed two times with 1×PFAE buffer. A 1:100 dilution of FITC-labeled goat anti-human kappa light chain antibody (Bethyl Laboratories, Inc., Cat. # A80-115F) was added and the mixture was incubated for 30 minutes at 4° C., followed by washing twice with cold 1×PFAE buffer. After the final wash, 150 μl of cold 1×PFAE containing 10 μg/mL propidium iodide (Roche Applied Science, Cat #1 348 639) was added to each solution and analysis of antibody binding was carried out by flow cytometry using a FACScalibur flow cytometer (BD Bioscience).

[3] = biological target: T3, LAG-3 fusion protein comprising human …; assay: flow cytometry, inhibition of hLAG-3-mIg binding to MHC Class II on Daudi cells
Description: To test the ability of the anti-LAG-3 antibodies to inhibit binding of LAG-3 to MHC Class II molecules, an in vitro binding assay was performed in which a LAG-3 fusion protein, comprising human LAG-3 extracellar domain fused to mouse Fc (hLAG-3-mIg), was reacted with Daudi cells, which express human MHC Class II molecules.
This mixture was incubated for 20 minutes at room temperature prior to adding to 2×10^{5 1}×PFAE-washed Daudi cells. The mixture was applied to Daudi cells and incubated at 4° C. for 30 minutes. The cells were pelleted (three minutes, 400×g), washed once with 1×PFAE buffer and re-pelleted, and binding of hLAG-3-mIg to the Daudi cells was detected using a recombinant PE-labeled anti-mIgG Fcγ secondary reagent. Analysis of LAG-3-mIg binding was carried out with the FACScalibur flow cytometer (BD Bioscience).

| Binder | Kd [1] | EC50 [2] | IC50 [3] | fold lower EC50 than 25E3 [2] |
| --- | --- | --- | --- | --- |
| 26H10 human monoclonal antibody (antibody, IgG1, V domains shown, also called 26H10-FITC) VH: QVQLVESGGGVVQPGRSLRLSCAASGFTFSSYGMHWVRQAPGKGLEWVAVIWYDGSNKYYADSVKGRFTISRDNSKNTLYLQMNSLRAEDTAVYYCAREWAVASWDYGMDVWGQGTTVTVSS VL: not shown | 0.1 nM | 1.81 to 3.64 nM | 0.1 nM |  |
| 25F7 human monoclonal antibody (antibody, IgG1, V domains shown, also called 25F7-FITC (IgG1 version)) VH: QVQLQQWGAGLLKPSETLSLTCAVYGGSFSDYYWNWIRQPPGKGLEWIGEINHNGNTNSNPSLKSRVTLSLDTSKNQFSLKLRSVTAADTAVYYCAFGYSDYEYNWFDPWGQGTLVTVSS VL: EIVLTQSPATLSLSPGERATLSCRASQSISSYLAWYQQKPGQAPRLLIYDASNRATGIPARFSGSGSGTDFTLTISSLEPEDFAVYYCQQRSNWPLTFGQGTNLEIK | 0.47 nM | 0.45 to 2.52 nM | 0.12 to 0.92 nM | ~20 fold |

These reach a lower Kd [1]. Values come first.

| Kd [1] | EC50 [2] | IC50 [3] | fold lower EC50 than 25E3 [2] | Binder |
| --- | --- | --- | --- | --- |
| 0.09 nM | 14.9 to 25.4 nM | 0.8 to 6.78 nM |  | 25E3 human monoclonal antibody (antibody, IgG1, V domains shown) VH: EVQLVESGGGVVRPGGSLRLSCAASGFTFDDYGMSWVRQAPGKGLEWVSGINWNGGSTYYADSVKGRFTISGDNAKNSLYLQMNSLRAEDTALYYCTTGGYWGQGTLVTVSS VL: AIQLTQSPSSLSASVGDRVTITCRASQGIRSALAWYQQKPGKAPKLLIYDASSLESGVPSRFSGSGSGTDFTLTISSLQPEDFATYYCQQFNSYPYTFGQGTKLEIK |
| 0.09 nM | 1.93 to 4.44 nM | 0.19 to 0.95 nM |  | 8B7 human monoclonal antibody (antibody, IgG4, V domains shown, also called 8B7-FITC) VH: QVQLQQWGAGLLKPSETLSLTCAVYGGSFSGYYWSWIRQPPGKGLEWIGEINHRGNTNCNPSLKSRVTISGDTSKKQFALKLNSVTAADTAVYYCARGYDILTGYYEDSWGPGTLVTVSS VL: EIVLTQSPATLSLSPGERATLSCRASQSVSSYLAWYQQKPGQAPRLLIYNASNRATGIPARFSGSGSGTDFTLTISSLEPEDFAVYYCQQRSNWPLTFGGGTKVEIK |
